According to patent publication US12624118B2, “Trispecific binding molecules against BCMA and uses thereof” (Novartis AG, priority 2019, dated 2026):
Where a chain is given by its changes, count along the chain named.

T1: recombinant human CD2 (Homo sapiens, UniProt P06729)
T1 construct: transiently produced and purified from HEK293 cells along with the CD2 extracellular domain; made in house; host or cells: HEK293 / HEK293F cells (transient expression)
T1 sequence (P06729 with tags, fused parts or gaps): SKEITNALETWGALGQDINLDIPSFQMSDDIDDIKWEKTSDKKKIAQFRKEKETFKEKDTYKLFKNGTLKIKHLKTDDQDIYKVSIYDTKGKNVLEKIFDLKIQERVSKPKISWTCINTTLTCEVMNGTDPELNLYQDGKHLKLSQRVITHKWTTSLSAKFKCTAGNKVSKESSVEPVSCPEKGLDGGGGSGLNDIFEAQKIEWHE

B1: IgV V54C_G88C: CD58 domain 1 with V54 and G88 replaced by cysteines to form a disulfide bridge (protein)
chain: SQQIYGVVYGNVTFHVPSNVPLKECLWKKQKDKVAELENSEFRAFSSFKNRVYLDTVSCSLTIYNLTSSDEDEYEMESPNITDTMKFFLYVLESGGGGSHHHHHHHH
B2: IgV V45C_M114C: CD58 domain 1 with V45 and M114 replaced by cysteines to form a disulfide bridge (protein)
chain: B1 chain with V16C, C25V, C59G, M85C
B3: CD58 Full ECD: recombinant human CD58 full extracellular domain with C-terminal 8×his tag (protein)
chain: SQQIYGVVYGNVTFHVPSNVPLKEVLWKKQKDKVAELENSEFRAFSSFKNRVYLDTVSGSLTIYNLTSSDEDEYEMESPNITDTMKFFLYVLESLPSPTLTCALTNGSIEVQCMIPEHYNSHRGLIMYSWDCPMEQCKRNSTSIYFKMENDLPQKIQCTLSNPLFNTTSSIILTTCIPSSGHSRHRGGGGSHHHHHHHH
modifications: C-terminal 8xHis tag
notes: recombinant human CD58 full extracellular domain with C-terminal 8×his tag
B4: CD58_IgV: IgV domain (domain 1) of human CD58, without stabilizing disulfide (protein)
chain: B1 chain with C25V, C59G
B5: IgV V45C_M105C: CD58 domain 1 with V45 and M105 replaced by cysteines to form a disulfide bridge (protein)
chain: B1 chain with V16C, C25V, C59G, M76C
B6: AB3: anti-BCMA binder, AB3 Family, derived from parental PI-61 (antibody, V domains shown)
VH: QVQLVESGGGVVQPGRSLRLSCAASGFTVSSYGMHWVRQAPGKGLEWVAVISYTGSNKYYADSVKGRFTISRDNSKNTLYLQMNSLRAEDTAVYYCGGSGYALHDDYYGLDVWGQGTLVTVSS
VL: QSALTQPASVSGSPGQSITISCTGTSSDVGGYNYVSWYQQHPGKAPKLMIYDVSNRLRGVSNRFSGSKSGNTASLTISGLQAEDEADYYCSSYTSSSALYVFGSGTKVTVL

System: not listed separately
Test: Thermal stability by differential scanning fluorimetry (DSF)
Type: physicochemical
Settings: Sypro Orange; 25° C. to 95° C. at 0.5° C./minute
Method: Disulfide stabilized variants were assessed for improved thermal stability using both differential scanning calorimetry (DSC) and differential scanning fluorimetry (DSF) using standard techniques. For DSF, 1-3 ug of each construct was add to 1× Sypro Orange (Thermo-Fisher) in 25 ul total volume in 96-well PCR plate. Using a Bio-Rad CFX96 RT-PCR system equipped with C1000 Thermal Cycler, the temperature was increased from 25° C. to 95° C. at 0.5° C./minute and the fluorescence monitored. The manufacturer-supplied software was used to determine Tm.

In order of rising “Tm (° C.) By Differential Scanning Fluorimetry (DSF)” value:
1. B4  48.5 °C
2. B5  48.5 °C
3. B3  59.5 °C
4. B2  63.5 °C
5. B1  76.5 °C

System: not listed separately
Test: Thermal stability by differential scanning calorimetry (DSC)
Type: physicochemical
Settings: HBS, 0.5 mg/mL; 25° C. to 100° C. at 1° C./minute
Method: For DSC, all samples were dialyzed into HEPES-buffered saline (HBS) and diluted to final concentration of 0.5 mg/mL. Tm and Tonset were determined using a MicroCal VP-Capillary DSC system (Malvern) by increasing temperature from 25° C. to 100° C. at 1° C./minute with a filtering period of 2 seconds and a mid-gain setting.

In order of falling “Tm (° C.) By Differential Scanning Calorimetry (DSC)” value:
1. B1  80.9 °C
2. B2  72.5 °C
3. B5  66.8 °C
4. B3  65.0 °C
5. B4  60.9 °C

In order of rising “Tmonset (° C.) By Differential Scanning Calorimetry (DSC)” value:
1. B5  43.9 °C
2. B4  46.3 °C
3. B3  48.8 °C
4. B2  49.6 °C
5. B1  66.7 °C

Biological target: T1, recombinant human CD2
Test: Isothermal calorimetry (ITC) binding affinity of CD58 variants
Settings: recombinant human CD2 (100 μM) titrated into 10 μM CD58 variant in HBS, apparent KD
Method: To ensure the binding affinity remained uncompromised by the additional of the stabilizing disulfide variance, isothermal calorimetry (ITC) was performed on the resulting recombinant CD58 proteins to determine their apparent KD and binding stoicheometry (n) to recombinant human CD2.
Briefly, recombinant human CD2 and recombinant human CD58 variants were dialyzed into HEPES-buffered saline (HBS). CD2 was diluted to final concentration of 100 μM, CD58 variants were diluted to 10 μM. CD2 was titrated into 10 μM of CD58 variants via multiple injections and ΔH (kcal/mole) determined using a MicroCal VP-ITC isothermal titration calorimeter (Malvern). Titrations of CD2 into HBS were used as a reference and KD and n determined from the resulting data.

Molecule B3 has a Kd of 570 nM.

System: BCMA+ multiple myeloma cell lines
Test: In vitro RTCC assays of anti-BCMA x anti-CD3 bispecific antibodies
Type: cell-based
Settings: tested as anti-BCMA x anti-CD3 bispecific antibodies having VH and VL sequences of the binder
From the text: (§1) Anti-BCMA x anti-CD3 bispecific antibodies having VH and VL sequences of AB1, AB2, and AB3 were produced.

For B6, the “activity in in vitro RTCC assays” value was “active”.

System: KMS11-Luc multiple myeloma orthotopic tumor
Test: KMS11-Luc multiple myeloma orthotopic tumor model
Type: in vivo
Settings: tested as anti-BCMA x anti-CD3 bispecific antibodies having VH and VL sequences of the binder; NSG mice
From the text: as §1

With B6 the anti-tumor activity was “anti-tumor activity”.
